Target: T1, His-ubiquitin (UniProt P0CG48 1-76)
T1 construct: ubiquitin (monomer); also called recombinant ubiquitin; source: recombinant
Assay: pull-down; 2 ug Flag-HA-WRNIP1 or Flag-HA-WRNIP1-19R with 2 ug His-ubiquitin; 300 mM KCl, 40 mM Tris-HCl pH 8.0, 100 ug/ml BSA; 30 C for 1 h; captured on anti-HA Sepharose at 4 C; immunoblot against WRNIP1 and ubiquitin
Conditions: both partners purified

binding result: binds
B1: Flag-HA-WRNIP1 (purified from Sf9 cells) (natural protein, human, UniProt Q96S55 1-665, looked up)
chain: MEVSGPEDDPFLSQLHQVQCPVCQQMMPAAHINSHLDRCLLLHPAGHAEPAAGSHRAGERAKGPSPPGAKRRRLSESSALKQPATPTAAESSEGEGEEGDDGGETESRESYDAPPTPSGARLIPDFPVARSSSPGRKGSGKRPAAAAAAGSASPRSWDEAEAQEEEEAVGDGDGDGDADADGEDDPGHWDADAAEAATAFGASGGGRPHPRALAAEEIRQMLQGKPLADTMRPDTLQDYFGQSKAVGQDTLLRSLLETNEIPSLILWGPPGCGKTTLAHIIASNSKKHSIRFVTLSATNAKTNDVRDVIKQAQNEKSFFKRKTILFIDEIHRFNKSQQDTFLPHVECGTITLIGATTENPSFQVNAALLSRCRVIVLEKLPVEAMVTILMRAINSLGIHVLDSSRPTDPLSHSSNSSSEPAMFIEDKAVDTLAYLSDGDARAGLNGLQLAVLARLSSRKMFCKKSGQSYSPSRVLITENDVKEGLQRSHILYDRAGEEHYNCISALHKSMRGSDQNASLYWLARMLEGGEDPLYVARRLVRFASEDIGLADPSALTQAVAAYQGCHFIGMPECEVLLAQCVVYFARAPKSIEVYSAYNNVKACLRNHQGPLPPVPLHLRNAPTRLMKDLGYGKGYKYNPMYSEPVDQEYLPEELRGVDFFKQRRC
notes: WRNIP1, human; Purification as in Liang et al., 2016; also called wild-type WRNIP1; source: Sf9, purified

Reference: PMC7351111, “WRNIP1 Is Recruited to DNA Interstrand Crosslinks and Promotes Repair” (Cell Reports, 2020)
